Experimental data taken from patent US20190309055A1 (NORDIC BIOSCIENCE A S, published 2019).

Key:
[1] = target: T1, standard peptide KPGVISVMGT (last 10 amino acids of the type VI collagen α3 chain, 3168-3177); test: competitive ELISA, peptide specificity test
T1 construct: also called STD peptide; immunogenic peptide
T1 peptide: KPGVISVMGT

[2] = target: T2, elongated peptide KPGVISVMGTA; test: competitive ELISA, serial 2-fold dilutions of peptide
T2 peptide: KPGVISVMGTA

[3] = target: T3, truncated peptide KPGVISVMG; test: as above
T3 peptide: KPGVISVMG

B1: monoclonal antibody 10A3 (antibody, mouse IgG1, kappa, V domains shown)
VH: EVQLQQSGPVMVKPGTSVKTSCKASGYTFTDFNMNWVKQSHGKSLEWIGAINPHNGATSYNQKFSGKATLTVDKSSSTAYMELNSLTSDDSAVYYCARWGNGKNSWGQGTTLTVSS
VL: DVVMTQTPLSLPVNLGDQASISCRSSQRIVHSNGITFLEWYLQKPGQSPKLLIYRVSNRFSGVPDRFSGSGSGTDFTLKISRVEAEDLGLYYCFQGSHVPLTFGAGTRLELKR
notes: Mouse IgG1/kappa from hybridoma; also called the chosen antibody; HRP conjugated monoclonal antibody 10A3
- binding result [1]: binds
- binding result [2]: no binding
- binding result [3]: no binding
